# Laboratory results as given in patent US20240261333A1, “NOVEL TARGETS FOR ENHANCING ANTI-TUMOR IMMUNITY” (THE BROAD INSTITUTE, INC., priority 2021, published 2024).
# Key:
# [1] = target: ATXN2 (human) (UniProt Q99700); test: co-IP, IgG control, lysate of cells with C-FLAG B3GNT2; mass spectrometry
# [2] = target: C1orf68 (human) (UniProt Q5T750); test: as above
# [3] = target: CAT (human) (UniProt P04040); test: as above
# [4] = target: DDX5 (human) (UniProt P17844); test: as above
# [5] = target: DNAJC3 (human) (UniProt Q13217); test: as above
# [6] = target: EIF5B (human) (UniProt O60841); test: as above
# [7] = target: FAU (human) (UniProt P62861); test: as above
# [8] = target: FUBP3 (human) (UniProt Q96I24); test: as above
# [9] = target: G3BP1 (human) (UniProt Q13283); test: as above
# [10] = target: HSPA8 (human) (UniProt P11142); test: as above
# [11] = target: HUWE1 (human) (UniProt Q7Z6Z7); test: as above
# [12] = target: KRT4 (human) (UniProt P19013); test: as above
# Chain of KRT4 (human) (P19013 whole entry): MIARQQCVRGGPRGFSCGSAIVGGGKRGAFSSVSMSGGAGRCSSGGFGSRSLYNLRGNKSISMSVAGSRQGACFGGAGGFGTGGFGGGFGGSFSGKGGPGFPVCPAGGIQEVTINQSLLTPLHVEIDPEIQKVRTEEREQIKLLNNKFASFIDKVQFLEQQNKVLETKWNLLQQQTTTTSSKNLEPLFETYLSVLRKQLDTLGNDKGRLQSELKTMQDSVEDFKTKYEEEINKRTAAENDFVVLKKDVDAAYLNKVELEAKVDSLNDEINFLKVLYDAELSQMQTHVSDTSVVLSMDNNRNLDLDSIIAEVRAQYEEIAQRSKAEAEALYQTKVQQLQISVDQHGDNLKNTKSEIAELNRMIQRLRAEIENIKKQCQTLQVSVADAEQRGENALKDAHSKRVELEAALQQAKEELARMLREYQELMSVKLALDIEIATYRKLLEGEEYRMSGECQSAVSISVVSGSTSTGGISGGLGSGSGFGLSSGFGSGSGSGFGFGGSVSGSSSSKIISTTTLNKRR
# [13] = target: KRT6B (human) (UniProt P04259); test: as above
# Chain of KRT6B (human) (P04259 2-564 limits assumed): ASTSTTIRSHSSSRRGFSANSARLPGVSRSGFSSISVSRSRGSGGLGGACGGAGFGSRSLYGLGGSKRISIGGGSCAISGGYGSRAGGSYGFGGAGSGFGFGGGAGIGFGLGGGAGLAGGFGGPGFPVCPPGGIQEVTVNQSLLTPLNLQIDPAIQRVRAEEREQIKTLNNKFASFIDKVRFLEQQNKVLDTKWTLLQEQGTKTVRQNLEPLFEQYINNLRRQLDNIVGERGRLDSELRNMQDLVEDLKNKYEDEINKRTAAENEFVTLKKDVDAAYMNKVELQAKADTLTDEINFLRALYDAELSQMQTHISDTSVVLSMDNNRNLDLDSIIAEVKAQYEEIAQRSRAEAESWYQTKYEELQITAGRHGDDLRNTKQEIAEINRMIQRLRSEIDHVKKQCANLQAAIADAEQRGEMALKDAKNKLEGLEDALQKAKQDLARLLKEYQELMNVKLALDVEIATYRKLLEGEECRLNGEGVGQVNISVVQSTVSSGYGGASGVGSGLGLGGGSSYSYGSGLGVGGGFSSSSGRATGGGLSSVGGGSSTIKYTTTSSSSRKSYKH
# [14] = target: LMNA (human) (UniProt P02545); test: as above
# Chain of LMNA (human) (P02545 1-646 limits assumed): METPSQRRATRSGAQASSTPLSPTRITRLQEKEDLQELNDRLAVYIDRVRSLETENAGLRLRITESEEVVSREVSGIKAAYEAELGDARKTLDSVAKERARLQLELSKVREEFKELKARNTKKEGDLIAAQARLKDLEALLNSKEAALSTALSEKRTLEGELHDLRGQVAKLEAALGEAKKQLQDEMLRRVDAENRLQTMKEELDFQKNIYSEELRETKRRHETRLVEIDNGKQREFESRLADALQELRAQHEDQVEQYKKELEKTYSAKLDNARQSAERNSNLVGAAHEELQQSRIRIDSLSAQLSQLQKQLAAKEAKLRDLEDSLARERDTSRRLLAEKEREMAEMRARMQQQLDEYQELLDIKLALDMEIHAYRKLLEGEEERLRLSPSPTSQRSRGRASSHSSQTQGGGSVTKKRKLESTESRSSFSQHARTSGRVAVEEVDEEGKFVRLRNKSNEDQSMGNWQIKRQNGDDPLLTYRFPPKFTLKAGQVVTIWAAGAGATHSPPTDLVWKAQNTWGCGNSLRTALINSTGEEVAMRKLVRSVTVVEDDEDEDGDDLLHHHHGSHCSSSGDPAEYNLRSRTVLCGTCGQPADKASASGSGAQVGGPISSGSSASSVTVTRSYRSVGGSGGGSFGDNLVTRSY
# [15] = target: LSM12 (human) (UniProt Q3MHD2); test: as above
# Chain of LSM12 (human) (Q3MHD2 2-195 limits assumed): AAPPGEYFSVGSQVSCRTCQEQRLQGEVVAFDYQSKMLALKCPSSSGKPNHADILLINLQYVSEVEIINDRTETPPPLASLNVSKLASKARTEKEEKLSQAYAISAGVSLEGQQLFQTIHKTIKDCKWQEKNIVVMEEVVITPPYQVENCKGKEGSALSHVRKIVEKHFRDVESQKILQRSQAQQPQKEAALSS
# [16] = target: NUFIP2 (human) (UniProt Q7Z417); test: as above
# Chain of NUFIP2 (human) (Q7Z417 whole entry): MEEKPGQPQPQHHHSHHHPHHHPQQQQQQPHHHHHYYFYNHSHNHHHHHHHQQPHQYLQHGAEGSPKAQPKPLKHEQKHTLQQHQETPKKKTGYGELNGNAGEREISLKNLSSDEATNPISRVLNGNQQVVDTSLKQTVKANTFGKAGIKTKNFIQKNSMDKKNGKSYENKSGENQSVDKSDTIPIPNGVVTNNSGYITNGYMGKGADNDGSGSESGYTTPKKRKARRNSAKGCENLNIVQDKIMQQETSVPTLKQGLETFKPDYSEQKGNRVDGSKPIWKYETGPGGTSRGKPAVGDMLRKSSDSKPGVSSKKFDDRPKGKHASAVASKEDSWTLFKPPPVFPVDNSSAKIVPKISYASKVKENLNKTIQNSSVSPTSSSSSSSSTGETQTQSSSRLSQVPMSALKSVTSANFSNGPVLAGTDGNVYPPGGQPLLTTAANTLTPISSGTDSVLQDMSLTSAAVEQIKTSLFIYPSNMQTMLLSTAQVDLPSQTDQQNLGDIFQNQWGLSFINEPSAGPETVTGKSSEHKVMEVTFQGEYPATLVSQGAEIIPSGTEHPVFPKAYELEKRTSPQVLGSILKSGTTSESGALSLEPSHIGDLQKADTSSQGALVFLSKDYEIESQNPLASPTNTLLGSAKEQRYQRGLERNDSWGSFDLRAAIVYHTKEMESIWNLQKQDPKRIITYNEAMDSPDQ
# [17] = target: PARP1 (human) (UniProt P09874); test: as above
# [18] = target: PRBP1 (human) (UniProt P26599); test: as above
# [19] = target: PRRC2A (human) (UniProt P48634); test: as above
# [20] = target: PUM1 (human) (UniProt Q14671); test: as above
# Chain of PUM1 (human) (Q14671 other isoform, or with tags, fused parts or gaps limits assumed): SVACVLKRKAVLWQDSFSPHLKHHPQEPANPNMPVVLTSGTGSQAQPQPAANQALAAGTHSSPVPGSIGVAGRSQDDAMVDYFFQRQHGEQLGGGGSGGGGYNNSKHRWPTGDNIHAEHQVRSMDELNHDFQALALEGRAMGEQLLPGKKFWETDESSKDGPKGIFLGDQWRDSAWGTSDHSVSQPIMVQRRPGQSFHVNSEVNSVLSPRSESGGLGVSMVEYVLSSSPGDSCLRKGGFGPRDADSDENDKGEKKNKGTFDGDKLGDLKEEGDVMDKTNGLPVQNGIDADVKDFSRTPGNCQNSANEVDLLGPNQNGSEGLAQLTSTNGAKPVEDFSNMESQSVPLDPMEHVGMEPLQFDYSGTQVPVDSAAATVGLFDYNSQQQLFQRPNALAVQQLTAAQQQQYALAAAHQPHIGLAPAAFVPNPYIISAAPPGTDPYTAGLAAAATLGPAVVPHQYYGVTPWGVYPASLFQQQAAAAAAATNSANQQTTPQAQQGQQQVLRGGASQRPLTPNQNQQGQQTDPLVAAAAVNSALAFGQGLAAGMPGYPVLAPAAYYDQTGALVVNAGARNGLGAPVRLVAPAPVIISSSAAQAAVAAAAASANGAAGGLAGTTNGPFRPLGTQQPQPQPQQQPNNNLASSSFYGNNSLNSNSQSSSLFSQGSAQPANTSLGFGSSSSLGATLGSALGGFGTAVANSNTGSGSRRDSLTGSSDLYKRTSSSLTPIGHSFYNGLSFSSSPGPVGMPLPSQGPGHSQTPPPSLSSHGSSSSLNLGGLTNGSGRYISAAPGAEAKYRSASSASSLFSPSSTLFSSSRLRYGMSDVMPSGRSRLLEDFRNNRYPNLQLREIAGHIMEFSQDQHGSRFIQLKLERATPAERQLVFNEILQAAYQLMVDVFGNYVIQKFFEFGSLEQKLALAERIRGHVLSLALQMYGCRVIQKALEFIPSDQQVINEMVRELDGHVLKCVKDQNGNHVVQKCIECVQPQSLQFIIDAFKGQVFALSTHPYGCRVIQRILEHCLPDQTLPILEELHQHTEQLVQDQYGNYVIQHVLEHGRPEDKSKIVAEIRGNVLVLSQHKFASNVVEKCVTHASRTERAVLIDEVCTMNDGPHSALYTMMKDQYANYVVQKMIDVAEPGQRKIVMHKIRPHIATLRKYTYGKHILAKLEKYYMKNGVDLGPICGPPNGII
# [21] = target: RPL10 (human) (UniProt P27635); test: as above
# [22] = target: RPL13 (human) (UniProt P26373); test: as above
# [23] = target: RPL4 (human) (UniProt P36578); test: as above
# [24] = target: RPS28 (human) (UniProt P62857); test: as above
# [25] = target: RPS3 (human) (UniProt P23396); test: as above
# [26] = target: SAMM50 (human) (UniProt Q9Y512); test: as above
# [27] = target: T1, SERBP1 (human) (UniProt Q8NC51); test: as above
# T1 sequence (looked up): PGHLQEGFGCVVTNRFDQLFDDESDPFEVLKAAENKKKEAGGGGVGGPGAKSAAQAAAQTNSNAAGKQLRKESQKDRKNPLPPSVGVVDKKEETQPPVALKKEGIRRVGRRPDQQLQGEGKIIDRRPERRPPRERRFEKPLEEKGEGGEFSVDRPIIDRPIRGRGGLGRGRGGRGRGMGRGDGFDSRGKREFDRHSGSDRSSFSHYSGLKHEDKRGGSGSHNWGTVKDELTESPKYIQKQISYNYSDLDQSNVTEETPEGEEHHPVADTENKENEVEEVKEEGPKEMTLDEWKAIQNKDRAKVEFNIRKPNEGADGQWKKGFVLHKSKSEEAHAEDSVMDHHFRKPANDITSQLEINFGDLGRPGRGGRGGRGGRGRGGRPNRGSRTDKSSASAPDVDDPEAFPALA
# [28] = target: CALML5 (human) (UniProt Q9NZT1); test: control IP with IgG, lysate of cells with C-FLAG B3GNT2, mass spectrometry
# Chain of CALML5 (human) (Q9NZT1 2-146 limits assumed): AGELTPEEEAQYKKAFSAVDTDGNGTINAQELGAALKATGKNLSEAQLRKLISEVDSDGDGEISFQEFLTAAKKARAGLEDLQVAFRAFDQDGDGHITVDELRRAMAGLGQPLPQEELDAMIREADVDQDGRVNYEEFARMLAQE
# [29] = target: CHCHD3 (human) (UniProt Q9NX63); test: as above
# [30] = target: GEMIN4 (human) (UniProt P57678); test: as above
# [31] = target: GSN (human) (UniProt P06396); test: as above
# Chain of GSN (human) (P06396 28-782 limits assumed): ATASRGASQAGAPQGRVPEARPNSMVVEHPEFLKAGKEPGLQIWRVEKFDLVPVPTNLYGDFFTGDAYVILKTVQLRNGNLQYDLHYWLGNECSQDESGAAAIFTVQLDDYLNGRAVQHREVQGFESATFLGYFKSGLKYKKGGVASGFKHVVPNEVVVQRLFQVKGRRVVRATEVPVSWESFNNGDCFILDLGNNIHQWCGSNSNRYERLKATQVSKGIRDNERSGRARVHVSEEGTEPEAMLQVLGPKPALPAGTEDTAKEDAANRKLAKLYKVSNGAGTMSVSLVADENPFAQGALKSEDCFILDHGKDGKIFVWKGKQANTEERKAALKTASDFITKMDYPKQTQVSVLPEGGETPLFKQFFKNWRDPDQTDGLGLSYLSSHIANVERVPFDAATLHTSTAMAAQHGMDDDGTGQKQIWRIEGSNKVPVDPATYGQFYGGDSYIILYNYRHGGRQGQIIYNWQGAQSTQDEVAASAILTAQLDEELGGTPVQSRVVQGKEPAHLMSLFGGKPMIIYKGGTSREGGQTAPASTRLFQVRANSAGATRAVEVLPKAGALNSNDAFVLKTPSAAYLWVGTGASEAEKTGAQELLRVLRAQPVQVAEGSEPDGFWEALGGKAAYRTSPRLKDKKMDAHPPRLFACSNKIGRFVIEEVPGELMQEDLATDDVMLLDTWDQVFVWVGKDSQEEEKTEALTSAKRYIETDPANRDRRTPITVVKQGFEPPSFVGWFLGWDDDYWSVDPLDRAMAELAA
# [32] = target: RPL28 (human) (UniProt P46779); test: as above
# [33] = target: RPS14 (human) (UniProt P62263); test: as above
# Chain of C1orf68 (human) (Q5T750 whole entry): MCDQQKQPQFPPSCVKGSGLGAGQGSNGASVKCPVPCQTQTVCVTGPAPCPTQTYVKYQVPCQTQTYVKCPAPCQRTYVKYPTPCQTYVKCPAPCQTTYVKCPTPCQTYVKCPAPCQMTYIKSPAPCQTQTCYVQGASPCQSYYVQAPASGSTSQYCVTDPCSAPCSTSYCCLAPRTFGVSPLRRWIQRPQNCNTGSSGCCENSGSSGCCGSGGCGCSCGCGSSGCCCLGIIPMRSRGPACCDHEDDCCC
substance,measurement,setting,value
IgG control (Millipore Sigma 12-371) (antibody),co-IP mass spectrometry count,[1],3
same,co-IP mass spectrometry count,[2],4
same,co-IP mass spectrometry count,[3],3
same,co-IP mass spectrometry count,[4],16
same,co-IP mass spectrometry count,[5],0
same,co-IP mass spectrometry count,[6],0
same,co-IP mass spectrometry count,[7],5
same,co-IP mass spectrometry count,[8],7
same,co-IP mass spectrometry count,[9],25
same,co-IP mass spectrometry count,[10],15
same,co-IP mass spectrometry count,[11],0
same,co-IP mass spectrometry count,[12],0
same,co-IP mass spectrometry count,[13],295
same,co-IP mass spectrometry count,[14],18
same,co-IP mass spectrometry count,[15],0
same,co-IP mass spectrometry count,[16],4
same,co-IP mass spectrometry count,[17],0
same,co-IP mass spectrometry count,[18],6
same,co-IP mass spectrometry count,[19],3
same,co-IP mass spectrometry count,[20],0
same,co-IP mass spectrometry count,[21],3
same,co-IP mass spectrometry count,[22],8
same,co-IP mass spectrometry count,[23],6
same,co-IP mass spectrometry count,[24],0
same,co-IP mass spectrometry count,[25],17
same,co-IP mass spectrometry count,[26],0
same,co-IP mass spectrometry count,[27],5
same,co-IP mass spectrometry count,[28],0
same,co-IP mass spectrometry count,[29],11
same,co-IP mass spectrometry count,[30],0
same,co-IP mass spectrometry count,[31],0
same,co-IP mass spectrometry count,[32],3
same,co-IP mass spectrometry count,[33],10
